Reference: paper PMC4774423 (Frontiers in Immunology, 2016)
Values belong to the binder of their own block, whether it stands above or below them.

B1: recombinant human receptor for the globular heads of C1q (gC1qR) (receptor, UniProt Q07021 74-282, looked up)
chain: LHTDGDKAFVDFLSDEIKEERKIQKHKTLPKMSGGWELELNGTEAKLVRKVAGEKITVTFNINNSIPPTFDGEEEPSQGQKVEEQEPELTSTPNFVVEVIKNDDGKKALVLDCHYPEDEVGQEDEAESDIFSIREVSFQSTGESEWKDTNYTLNTDSLDWALYDHLMDFLADRGVDNTFADELVELSTALEHQEYITFLEDLKSFVKSQ
notes: the mature protein is recalled to begin at residue 74 of the precursor; also called receptor for C1q globular heads
B3: recombinant human calreticulin (natural protein, UniProt P27797 18-417, looked up)
chain: EPAVYFKEQFLDGDGWTSRWIESKHKSDFGKFVLSSGKFYGDEEKDKGLQTSQDARFYALSASFEPFSNKGQTLVVQFTVKHEQNIDCGGGYVKLFPNSLDQTDMHGDSEYNIMFGPDICGPGTKKVHVIFNYKGKNVLINKDIRCKDDEFTHLYTLIVRPDNTYEVKIDNSQVESGSLEDDWDFLPPKKIKDPDASKPEDWDERAKIDDPTDSKPEDWDKPEHIPDPDAKKPEDWDEEMDGEWEPPVIQNPEYKGEWKPRQIDNPDYKGTWIHPEIDNPEYSPDPSIYAYDNFGVLGLDLWQVKSGTIFDNFLITNDEAYAEEFGNETWGVTKAAEKQMKDKQDEEQRLKEEEEDKKRKEEEEAEDKEDDEDKDEDEEDEEDKEEDEEEDVPGQAKDEL
notes: human calreticulin, recombinant; also called CRT
B5: gC1qA module of C1q-scGR (residues 88-223 of mature C1qA) (domain or fragment, human, UniProt P02745 110-245, looked up)
chain: KDQPRPAFSAIRRNPPMGGNVVIFDTVITNQEEPYQNHSGRFVCTVPGYYYFTFQVLSQWEICLSIVSSSRGQVRRSLGFCDTTNKGLFQVVSGGMVLQLQQGDQVWVEKDPKKGHIYQGSEADSVFSGFLIFPSA
modifications: N-glycan at Asn 124
notes: globular domain of human C1q chain A; numbers count on: the mature protein; In the crystal it is joined on one chain with gC1qC (Gly-Ser-Gly linker) and gC1qB: see m1; also called subunit A; source: 293-F cells, as part of the single chain C1q-scGR, purified

Assays:
Settings in all cases: both partners purified
[1] = target: T1, globular regions of C1q prepared by collagenase digestion of serum-derived C1q (C1q-GR) (human, UniProt P02745 112-245; P02746 118-253; P02747 115-245); assay: SPR; Biacore 3000, 25°C; CRT, gC1qR and PTX3 amine-coupled on CM5; C1q samples flowed at 20 μl/min in 50 mM Tris-HCl, 150 mM NaCl, 2 mM CaCl2, 0.005% P20, pH 7.4; global fit 1:1 Langmuir (two-state model for C1q-CRT); apparent KD
T1 construct: globular region of human C1q chain A left after collagenase digestion; globular region of human C1q chain B left after collagenase digestion; globular region of human C1q chain C left after collagenase digestion; Heterotrimer of the three globular modules; Mw 48,000 used for concentration; also called serum-derived C1q-GR; plasma-derived C1q-GR; source: collagenase digestion of C1q purified from …

[2] = target: T2, C1q purified from human serum (full-length C1q) (human, UniProt P02745 23-245; P02746 28-253; P02747 29-245); assay: as above
T2 construct: also called intact C1q; native C1q; source: purified from human serum; copies: 6 + 6 + 6

[3] = target: T3, gC1qB module of C1q-scGR (residues 90-226 of mature C1qB) (human, UniProt P02746 117-253); assay: crystal structure; C1q-scGR crystallised with and without calcium in the reservoir; 1.35 and 1.55 Å
T3 construct: globular domain of human C1q chain B; numbers count on: the mature protein; In the crystal it is joined on one chain after gC1qC (Gly-Ser-Ala linker): see m1; also called subunit B; source: 293-F cells, as part of the single chain C1q-scGR, purified

[4] = target: B5; assay: as above
[5] = target: B3; assay: SPR; Biacore 3000, 25°C; CRT, gC1qR and PTX3 amine-coupled on CM5; C1q samples flowed at 20 μl/min in 50 mM Tris-HCl, 150 mM NaCl, 2 mM CaCl2, 0.005% P20, pH 7.4; global fit 1:1 Langmuir (two-state model for C1q-CRT); apparent KD
[6] = target: B1; assay: as above
[7] = target: T4, recombinant human long pentraxin PTX3 (human, UniProt P26022 18-381); assay: as above
T4 construct: human pentraxin 3, recombinant
T4 sequence (P26022 18-381): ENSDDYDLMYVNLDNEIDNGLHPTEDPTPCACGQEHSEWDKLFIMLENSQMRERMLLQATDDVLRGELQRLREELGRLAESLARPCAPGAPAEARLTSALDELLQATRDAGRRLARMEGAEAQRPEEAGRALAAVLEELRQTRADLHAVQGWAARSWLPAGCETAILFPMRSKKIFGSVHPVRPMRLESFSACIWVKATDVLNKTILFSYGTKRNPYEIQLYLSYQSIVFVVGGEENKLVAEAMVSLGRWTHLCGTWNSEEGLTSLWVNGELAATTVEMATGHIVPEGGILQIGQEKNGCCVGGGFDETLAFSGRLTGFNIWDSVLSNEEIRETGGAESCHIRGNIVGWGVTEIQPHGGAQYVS

Binder: B1
Kd [1]: 344 nM
koff [1]: 0.00149 s⁻¹
kon [1]: 4400 M⁻¹ s⁻¹
Kd [2]: 7.2 nM
koff [2]: 0.000457 s⁻¹
kon [2]: 68000 M⁻¹ s⁻¹

binding result [3]: binds
binding result [4]: binds
B2: gC1qC module of C1q-scGR (residues 87-217 of mature C1qC) (domain or fragment, human, UniProt P02747 115-245, looked up)
chain: KQKFQSVFTVTRQTHQPPAPNSLIRFNAVLTNPQGDYDTSTGKFTCKVPGLYYFVYHASHTANLCVLLYRSGVKVVTFCGHTSKTNQVNSGGVLLRLQVGEEVWLAVNDYYDMVGIQGSDSVFSGFLLFPD
notes: globular domain of human C1q chain C; numbers count on: the mature protein; In the crystal it is joined on one chain between gC1qA and gC1qB: see m1; also called subunit C; source: 293-F cells, as part of the single chain C1q-scGR, purified

Binder: B3
Kd [1]: 510 nM
koff [1]: 0.00234 s⁻¹
kon [1]: 4630 M⁻¹ s⁻¹
Kd [2]: 590 nM

Kd [5]: 494 nM
koff [5]: 0.00136 s⁻¹
kon [5]: 2800 M⁻¹ s⁻¹
Kd [6]: 304 nM
koff [6]: 0.00067 s⁻¹
kon [6]: 2220 M⁻¹ s⁻¹
Kd [7]: 444 nM
koff [7]: 0.000552 s⁻¹
kon [7]: 1320 M⁻¹ s⁻¹
B4: single-chain recombinant form of human C1q globular region (C1q-scGR) (domain or fragment)
chain: KDQPRPAFSAIRRNPPMGGNVVIFDTVITNQEEPYQNHSGRFVCTVPGYYYFTFQVLSQWEICLSIVSSSRGQVRRSLGFCDTTNKGLFQVVSGGMVLQLQQGDQVWVEKDPKKGHIYQGSEADSVFSGFLIFPSAGSGKQKFQSVFTVTRQTHQPPAPNSLIRFNAVLTNPQGDYDTSTGKFTCKVPGLYYFVYHASHTANLCVLLYRSGVKVVTFCGHTSKTNQVNSGGVLLRLQVGEEVWLAVNDYYDMVGIQGSDSVFSGFLLFPDGSAKATQKIAFSATRTINVPLRRDQTIRFDHVITNMNNNYEPRSGKFTCKVPGLYYFTYHASSRGNLCVNLMRGRERAQKVVTFCDYAYNTFQVTTGGMVLKLEQGENVFLQATDKNSLLGMEGANSIFSGFLLFPDMEA
modifications: N-glycan (biantennary, sialylated) at Asn 124 of C1qA
notes: globular domain of human complement C1q chain A (gC1qA), residues 88-223 of mature C1qA; numbers count on: the mature protein; Gly-Ser-Gly linker between gC1qA and gC1qC; Gly-Ser-Ala linker between gC1qC and gC1qB; globular domain of human complement C1q chain B (gC1qB), residues 90-226 of mature C1qB; An insect-cell version (C1qA 85-223, melittin signal peptide) was also made but was low-yield …

Binder: B5
binding result [3]: binds
